# In patent publication US20230414780A1 (VECT HORUS, published 2023):
# B1: C5V30-NT(8-13) (VHH)
# VHH: EVQLVESGGGVVQPGGSLKLSCVASGTDKSINFIRWYRQAPGKQREFVAGFTATGNTNYADSMKGRFTISRDNTKNAVYLQIDSLKPEDTAVYYCYMLDKWGQGTQVTVSS
# B2: E8 (VHH)
# VHH: EVQLVESGGRLVQAGGSLRLSCTASGLAFSTHTMHWFRQAPGKEREFVGAIRWSDEDTEYADSVKGRFTISRDNAKSTVYLQMNNLKPEDTAVYYCAAARGVGTSGHMKYWGQGTQVTVSS
# B3: D12 (neg ctrl) (VHH)
# VHH: EVQLVESGGGLVQPGGSLRLSCAASGFTFGSYVMSWVRQAPGKGPEWVSTVSSGGGTTYYADSVKGRFTISRDNAQNTLYLQMNSLKPEDTAVYYCATGRTGLGEGDHRGQGTQVTSSAAAEQKLISEEDLNGAAHHHHHHGS
# notes: also called control VHH D12
# B4: B8V31-NT(8-13) (VHH)
# VHH: EVQLVESGGGVVQPGGSLRLSCAASGEIKSINFMRWYRQAPGKQREWVAGFTRDGSTNYPDSAKGRFTISRDNAKNTVYLQIDSLKPEDTAVYYCYMLDTWGQGTQVTVSS
# Experiments:
# [1] = molecular target: T1, human transferrin receptor (hTfR) fused to EGFP, on CHO cells (human, UniProt P02786 1-760); assay: apparent Kd, cell-based assay
# T1 construct: whole, on cells; also called human TfR; CHO-hTfR-EGFP; not shown: EGFP from pEGFP-C1 vector, fused to the N-terminal (intracellular) end of hTfR
# T1 sequence (P02786 whole entry, the tested form may be a part): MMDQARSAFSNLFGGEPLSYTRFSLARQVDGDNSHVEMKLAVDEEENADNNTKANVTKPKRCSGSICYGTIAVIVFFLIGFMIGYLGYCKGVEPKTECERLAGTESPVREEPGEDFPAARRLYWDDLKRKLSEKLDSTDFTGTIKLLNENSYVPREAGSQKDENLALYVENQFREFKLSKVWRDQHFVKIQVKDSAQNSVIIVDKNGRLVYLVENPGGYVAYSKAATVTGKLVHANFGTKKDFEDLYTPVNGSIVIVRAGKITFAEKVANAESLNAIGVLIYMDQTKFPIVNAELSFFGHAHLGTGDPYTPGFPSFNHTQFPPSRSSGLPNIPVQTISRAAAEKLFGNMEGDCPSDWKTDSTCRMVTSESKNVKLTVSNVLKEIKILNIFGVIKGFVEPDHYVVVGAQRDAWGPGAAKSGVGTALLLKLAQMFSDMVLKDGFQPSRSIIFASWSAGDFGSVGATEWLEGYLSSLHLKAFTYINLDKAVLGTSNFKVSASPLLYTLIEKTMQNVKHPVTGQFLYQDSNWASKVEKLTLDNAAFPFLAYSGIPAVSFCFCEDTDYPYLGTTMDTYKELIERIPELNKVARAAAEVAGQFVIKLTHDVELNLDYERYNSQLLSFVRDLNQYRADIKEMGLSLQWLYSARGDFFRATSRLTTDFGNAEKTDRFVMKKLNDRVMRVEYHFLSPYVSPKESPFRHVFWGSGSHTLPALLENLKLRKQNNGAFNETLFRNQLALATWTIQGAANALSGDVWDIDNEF
# [2] = molecular target: T1, human transferrin receptor (hTfR) fused …; assay: cell-based assay on hTfR; Kd/app (the text, paragraph 408, gives 16.7 nM for this molecule)
# [3] = molecular target: T2, mouse transferrin receptor (mTfR) fused to EGFP, on CHO cells (mouse, UniProt Q62351 1-763); assay: flow cytometry, CHO cells
# T2 construct: whole, on cells; also called mouse TfR; CHO-mTfR-EGFP; not shown: EGFP
# T2 sequence (Q62351 whole entry, the tested form may be a part): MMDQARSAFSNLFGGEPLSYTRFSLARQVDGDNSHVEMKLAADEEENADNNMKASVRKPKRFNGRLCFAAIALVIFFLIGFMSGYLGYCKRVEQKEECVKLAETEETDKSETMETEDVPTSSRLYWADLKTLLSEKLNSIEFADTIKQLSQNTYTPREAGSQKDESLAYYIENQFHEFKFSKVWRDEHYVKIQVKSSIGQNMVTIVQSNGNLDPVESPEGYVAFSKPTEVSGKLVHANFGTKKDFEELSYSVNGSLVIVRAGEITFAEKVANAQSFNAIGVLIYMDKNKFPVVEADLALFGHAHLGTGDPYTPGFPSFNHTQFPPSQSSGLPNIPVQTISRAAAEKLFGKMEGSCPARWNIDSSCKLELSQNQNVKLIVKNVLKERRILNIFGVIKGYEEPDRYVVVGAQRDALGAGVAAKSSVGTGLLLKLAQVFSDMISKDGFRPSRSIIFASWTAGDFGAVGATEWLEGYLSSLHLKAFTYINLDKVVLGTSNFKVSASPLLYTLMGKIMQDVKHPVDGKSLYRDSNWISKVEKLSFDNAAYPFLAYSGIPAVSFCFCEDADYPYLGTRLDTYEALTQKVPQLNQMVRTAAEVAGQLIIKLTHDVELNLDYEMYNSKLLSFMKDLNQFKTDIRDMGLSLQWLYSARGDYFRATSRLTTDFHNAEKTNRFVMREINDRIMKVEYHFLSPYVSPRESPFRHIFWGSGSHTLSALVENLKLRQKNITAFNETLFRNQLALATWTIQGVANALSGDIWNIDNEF
# Method: (§1) The binding properties of VHHs with affinity for the TfR from different species (i.e., human (h), mouse (m) and rhesus monkey (rh)) were tested using flow cytometry, and apparent affinities (Kd app) were determined. All experiments were performed in 96 well plates using 2×10⁵ cells/well, at 4° C. with shaking. CHO cell lines expressing the hTfR, mTfR or rhTfR fused to EGFP were saturated with PBS/BSA 2% solution during 30 min to avoid nonspecific binding, followed by incubation with purified VHHs at increasing concentrations for 1 hr. After one wash in PBS/BSA 2%, cells were incubated for 1 hr with an anti-6His tag antibody (mouse), washed twice with PBS/BSA 2%, and incubated for 1 hr with an Alexa647-conjugated anti-mouse secondary antibody. After two last washes in PBS/BSA 2%, cells were fixed by incubation for 15 min with PBS/PFA 2%, washed once with PBS and finally resuspended in PBS. Fluorescence levels were assessed using an Attune NxT flow cytometer (Thermo Fisher Scientific). Experimental data were fitted with GraphPad Prism® software using a nonlinear fit to determine the apparent Kd constants. […] Table 5 hereafter summarizes apparent Kd obtained for the tested VHHs.
# [4] = molecular target: T1, human transferrin receptor (hTfR) fused …; assay: apparent Kd, flow cytometry, CHO cells
# Summary of the method: (§2)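 CHO cells expressing TfR-EGFP fusions, blocked in PBS/BSA 2%, then incubated with increasing VHH concentrations for 1 hr at 4° C. Bound VHH detected via anti-6His antibody and Alexa647 secondary, cells PFA-fixed, read by flow cytometry. Apparent Kd from nonlinear fit.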
# [5] = molecular target: T3, rhesus monkey transferrin receptor (rhTfR) fused to EGFP, on CHO cells (rhesus monkey); assay: apparent Kd, flow cytometry, CHO cells
# T3 construct: whole, on cells; also called rhesus monkey TfR
# Summary of the method: as §2
# [6] = molecular target: T1, human transferrin receptor (hTfR) fused …; assay: competition flow cytometry on CHO-hTfR-EGFP cells, 4 C; VHH competitor in dilution series, phage-H1 tracer at EC80, anti-M13-A647
# Method: FIGS. 17A-17D: Competition assays between VHHs and phage-VHHs. CHO-hTfR-EGFP cells were incubated 1 hr at 4° C. with VHHs (competitors) at increasing concentrations. Phage-VHHs (tracers) were then added at EC80 and incubated for 1 more hr. Phage-VHHs were detected with an anti-M13-A647 antibody (1/200). Fluorescence levels were assessed using flow cytometry. The ratio of fluorescence intensity for each point was normalized with the corresponding EGFP signal (receptor expression) and gave rise to the arbitrary unit. Data are presented as mean±SEM of independent experiments.
# To evaluate whether selected VHHs compete one with the other for binding to the TfR receptor, competition assays using flow cytometry experiments were performed. All experiments were performed in 96 well plates using 2×10⁵ cells/well, at 4° C. with shaking. CHO cell line expressing the hTfR fused to EGFP was saturated with PBS/BSA 2% solution during 30 min to avoid nonspecific binding, followed by incubation with VHH (competitors) at increasing concentrations for 1 hr. Then, phage-VHHs (tracers) at EC80 were added and incubated 1 hr more. To detect the phage-VHHs, cells were washed twice with PBS/BSA 2% and incubated for 1 hr with an Alexa647-conjugated anti-M13 antibody. […] Fluorescence levels were assessed using an Attune NxT flow cytometer (Thermo Fisher Scientific). […]
# [7] = molecular target: T1, human transferrin receptor (hTfR) fused …; assay: flow cytometry, CHO cells
# Method: as §1
# [8] = molecular target: T1, human transferrin receptor (hTfR) fused …; assay: cell-based assay on hTfR; Kd/app (the text, paragraph 408, gives 25.6 nM for this molecule)
binder,measurement,setting,value
B1,Kd,[1],16.7 nM
same,Kd,[2],25.6 nM
B2,binding result,[3],no binding
same,Kd,[4],3.4 nM
same,Kd,[5],2.1 nM
same,IC50 (read off the curve),[6],~40 nM
B3,binding result,[7],no binding
same,binding result,[3],no binding
B4,Kd,[1],25.6 nM
same,Kd,[8],16.7 nM
